Measured values published in the domain aggregation screens of Martell et al. (2025).

Test: soluble fraction after stress (log2 fold change); higher = more stays soluble; pooled small domains, quantitative proteomics
Details: stress: 50 degC
Procedure, shortened: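 Quantitative proteomics served as the high-throughput read-out for pooled custom libraries of small protein domains. Each was stressed at 50°C. Aggregation propensity is expressed as the base-two log fold change in soluble protein after stress. A higher value means a larger share of the protein remains in solution.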

Sequence | soluble fraction (log2)
HMELLTYREMDVLNLLDQRLTNKEIAHALGISTETVRQHTVNLFRKLNVDNRRQAIVVARSLGYIGTPT | -1.2
HMDPFVILGISKDSSQSEILEAYKTKRAYYQEHVFDEGDQGAQAARMLGQLDDAYQQAMELSHE | -0.062
HMPMPQDEVSYALGLSIGQNFKASGIKAITSEDFIAGLQDALAEREPQMTTERAREVINQLFMRLQQEESE | 0.145
HMSLAISGRNQLHGIIEEVRSDGLLSQIYLRVGDQVLTAVITRDAVAELKLKRGDTAVAIMKSTEVMIARE | 0.147
HMQALTLVGQDAKDAKAALDAVDIQPAKTETDRYIYVLTEQQAQELGRTVDALYGVEGSLTLILEV | 0.0301
HMIADSSSIHQDAKQQLHSYLRTNIQPLMRAGKQLDLKDILHHVTIRKPKLVQQLGMKQVQHMVQVLLD | 0.224
HMGIKYTNQRVEILNFLKDNLSHPTVDDVYEGVKKKLTRISKATVYQNLKFLASKGLIQEVNIKGVSRFEP | -1.32
HMVSAEQNTLEFIKENVKEDVIEDDIEFYKSLLEDWSVEVDNSSKLLDPGNNNSLLAVIAYSIENEL | -0.0399
HMVEIGENIKKLRKAKRMTQKEVANQLNVTPQTISKWERNISYPDLDMLVKLSQLFHISTDALL | -0.0765
HMESRLQAAIALRKAGEHEQSREALKILADEPALRAQALLNIAWSFDNQGHERDAEGYYLAAIE | -0.131
HMKELTPEQLQHNWNNLRQFIDVNFSGDRLGGLNKMYDYFEERMMFAPASGKQHYHNAFAGGYVEHVMHV | 0.335
HMQIKNVDYGTFLDMLDEKNVKEVEIEDEQIVFTDNADPTGYYTTGRMEDPDLVDRLHNSGATFSAI | -0.12
HMDEQKNREIALIENIQREDLNPYEKALGIRNLMDKYGLTQEEVSKRIGKSRSAVSNTVRILNLAPDVL | 0.0391
HMVLENLKKFIDSKGISVSAFEKSIGMSNNSFRKSLNSGGHIGSDKLENILKIYPELNPVWLLQGEGEML | -0.27
HMLMSDEENAEFTKLYRQLVFKLHPDLNPNQTKDEENLWHKVQMAYKGGDLEEMRSLAIILDAQ | -0.0474
HMHSIFPVIRSTSFPTKSNDGELFITSDHTAETRIYYALDLGNTYRLIDQKVMNEINLTESLVKETARF | -1.9
HMSFGWELYKGKEGIADTDLHPSGWIRIADKRVFAVSEGEFIEKGLEIIVLSVDGNRIVVRELK | -1.39
HMHRGTPASIIAAAKQYLTGGQTVELYEREGGPWTFRLRTYLSETPYPEKVRASVEALKPAGVVFLYELQS | -0.207
HMIDSVFASYRQVALDDELWDKVRNGAVLPKVELFEVMDGPVLFTYQSKIVAMYEPHPTKAGYIKPRKMFL | -1.18
HMADFIKEIKTNNPRQLLKSILSSFMPRALILELEMLLWNDLKSKPIGEWSNTQIENVGKLLNNWILKPAA | 0.0698
HMEEIIPIRFLRHRVKRRETIFGLTQKYNITEDQLKRYNTRLYSEALERKMVLQIPVFPEVDED | -2.31
HMSVTSIEGRVVYDENANKIGIAKQVGIDSTQSMVLVLTKNDGTEGSISWNNIKKIGEIILLGN | -0.369
HMQNREQNILDGKSILDKELKRVGLLNQSAAIMAQEMKFNSQDDLFAALGSGATRIGQIINHLQKQS | -0.00642
HMATTIDFTVGDDVQVMNGPLESFTGKVTELNEASQKVKVDVVMFGRVTNVELDFVQVKKIT | 0.162
HMSSRSLTYSDFIERVDAGQVDAVTLDGERIVIRAKDGNTYVAIKPQGEDVTGSLTRDLIAKGVDVEAEPQ | 0.0928

Sequence | soluble fraction (log2)
HMYPDNEQTLSKLAFEFFKKRNIPISQSNINQIVTKSLGDRENLYNELLKIENFSTSGKKLTDNVIKKLIN | 0.00831
HMKSERHALILSLIEKKNVETQEDLAELLKERGVAVTQATVSRDIKELRLIKVLSETGGYKYATVDKAE | -0.103
HMRPDSFEAGEAEAGSRLDRLLAARLGIPRNQVQQWIGGGRVTVDAEPVRASLVVRAGMRIAWDPPPPP | -0.0768
HMSSIDLTARSGRAALKHRLSLLGYEFSKIELETLYVRFIELADEKKLLHDEDLIELVKEKN | -1.37
HMVADEGELLAIAREVVAANPKVFEDWKAGKQSAAQWFVGQIMKRTRGRANPQLALKLVTQALEEHAR | 0.0775
HMEDPVAQEARAAFEVGRLLAAATGPVTLAAIRRAIDLPEERLEEILRRLEESGAVRRARDGWLPG | 0.0888
HMRRLGTTEIAGILRREISQGILIAKERLPSERSLADTYGVARGTVRQALNLLAREGLVQIRRSSGAYVTF | -0.33
HMNSTNYQVIITANGGLNIRAGASTAYARIGGYAKGTVVTILAESNGFGKTDKGWISLNYTSKDLD | -3.07
HMSDTVDITKLGIAGKTKEAAEALLKENGFSVESKEENSDTIEKGKVISYSPTKPKNGDRITLIVSSGKK | 0.0915
HMNSLPFSNFMNEVEAGRVVEVKIQGNNISGVLANGKTFSTYSPNYPELVEKLSSNGVSIVATPQ | 0.153
HMPIHAGERLTLRLAGEGREAGQAIGYLEDGTLVIVERARHLIGQDVTVEVTRTLQTAGGRLVFAHLVE | -0.531
HMVNTVEVQGNTIYSAEEIRSASGIQKGDNLFTLNKEAAAGSIKASLPYVETVSIIRFLPDKIVIEVKE | -0.473
HMGEPQAWNELIGNLLRQWEARQTGWTPARKREALDRVLGAADPAALYTRLQGLLKSWTQAMTDADA | -1.7
HMEWLENIKKLKKEKGLTNESLSEKSGISVGTLNKLLSGATTDPKLSTLRPLADALEVSLDELLAI | 0.166
HMDLQHQLTPRLKRLRLSGILETLEVRNQQAIAEKWSYVEFLTRLAEDEVERRDHKQLTLRLR | -0.499
HMKAKTYTVQYIDEGKIIKEEELEEGSIINAPEVTKEGHTFIGWYEGEEKYDVYEPITRNLILESKNEIN | -0.137
HMEKAKVPSVIGMTEANAKRTIRDAGFKVGRVTRVESEAYDKGKVIEQQYEAGSELEKKKPISIVVSKGKK | -0.162
HMVILPGEKMVVKIVQPGKEKGQGVGYLADGTMIVVDSGDKMIGQDVPTEITRVFQTVAGKMLFAVPVD | -0.426
HMSYDAINGYEPSDLRGSLTLEQTASMLNLPLTDVYARLGLPANYPSGATLKDGAADMGMGLSDFKHQLF | -0.0605
HMETLKINTHLGTLNLKKRGKKGTWQINIYFKNIEGDNHYRQSTGTNQLELAKAKAMNMITTEYSNRLAGI | -1.69
HMTKTFDSPEDADNDVLAKTLFQIFGVQSVYLKENFVTITKSNSVGWHTLMEKTGHTLEEHLKF | 0.0987
HMGDLDLVTFGQRLRHLRRSRNMTLSELGERVGRAPSQLSLLENGKREPKLSLLTALAKALDVSVEEL | -0.75
HMNLLDYDFFEKMSSKEQEEIVEKVYIDFLNKSTGTNSPFYLKLFEKGKKSYIVNWLNENNF | -1.44
HMEYSNLGEALRRLSEIDLQIILLKYSHGFSIKEISKILDIKEVNLYKRNKRALNKLKKILAEMEVLSN | -0.397
HMATAEETTPLWARNRLSHAIFGPGSVTGEDERSFEVAFDNGDTLNFSKKSAHLYFTAMSSR | -0.0942
